The record followed here is article PMC9365787, “Molecular basis of MHC I quality control in the peptide loading complex” (Nature Communications, 2022).

Sequences and labels used below:
B1: calreticulin (natural protein, human (endogenous in Raji), UniProt P27797 18-417, looked up)
chain: EPAVYFKEQFLDGDGWTSRWIESKHKSDFGKFVLSSGKFYGDEEKDKGLQTSQDARFYALSASFEPFSNKGQTLVVQFTVKHEQNIDCGGGYVKLFPNSLDQTDMHGDSEYNIMFGPDICGPGTKKVHVIFNYKGKNVLINKDIRCKDDEFTHLYTLIVRPDNTYEVKIDNSQVESGSLEDDWDFLPPKKIKDPDASKPEDWDERAKIDDPTDSKPEDWDKPEHIPDPDAKKPEDWDEEMDGEWEPPVIQNPEYKGEWKPRQIDNPDYKGTWIHPEIDNPEYSPDPSIYAYDNFGVLGLDLWQVKSGTIFDNFLITNDEAYAEEFGNETWGVTKAAEKQMKDKQDEEQRLKEEEEDKKRKEEEEAEDKEDDEDKDEDEEDEEDKEEDEEEDVPGQAKDEL
notes: source: endogenous, Raji (Burkitt's lymphoma) cells, solubilised in GDN; purified within the PLC by ICP47^SBP and reconstituted in MSP2N2 nanodiscs
B2: tapasin (natural protein, human (endogenous in Raji), UniProt O15533 21-448, looked up)
chain: GPAVIECWFVEDASGKGLAKRPGALLLRQGPGEPPPRPDLDPELYLSVHDPAGALQAAFRRYPRGAPAPHCEMSRFVPLPASAKWASGLTPAQNCPRALDGAWLMVSISSPVLSLSSLLRPQPEPQQEPVLITMATVVLTVLTHTPAPRVRLGQDALLDLSFAYMPPTSEAASSLAPGPPPFGLEWRRQHLGKGHLLLAATPGLNGQMPAAQEGAVAFAAWDDDEPWGPWTGNGTFWLPTVQPFQEGTYLATIHLPYLQGQVTLELAVYKPPKVSLMPATLARAAPGEAPPELLCLVSHFYPSGGLEVEWELRGGPGGRSQKAEGQRWLSALRHHSDGSVSLSGHLQPPPVTTEQHGARYACRIHHPSLPASGRSAEVTLEVAGLSGPSLEDSVGLFLSAFLLLGLFKALGWAAVYLSTCKDSKKKAE
modifications: N-glycan at Asn233 (Man9-0GlcNAc2-1, heterogeneous); disulfide from Cys95 to Cys33 of ERp57
notes: as for B1

Experiment [1] has as its target B2. Description: cryo-EM structure; PLC::MSP2N2 (1.8 mg/ml, 2.5 µM) in lipid nanodiscs without chemical fixation; focused refinement on the fully assembled editing module, 3.7 Å. The note with it: both partners purified.
In experiment [2] the target is T1, ERp57 (human (endogenous in Raji), UniProt P30101 25-505, disulfide from Cys33 to Cys95 of tapasin).
T1 construct: also called disulfide isomerase ERp57; source: endogenous, Raji (Burkitt's lymphoma) cells, solubilised in GDN; purified within the PLC by ICP47^SBP and reconstituted in MSP2N2 nanodiscs
T1 sequence (looked up): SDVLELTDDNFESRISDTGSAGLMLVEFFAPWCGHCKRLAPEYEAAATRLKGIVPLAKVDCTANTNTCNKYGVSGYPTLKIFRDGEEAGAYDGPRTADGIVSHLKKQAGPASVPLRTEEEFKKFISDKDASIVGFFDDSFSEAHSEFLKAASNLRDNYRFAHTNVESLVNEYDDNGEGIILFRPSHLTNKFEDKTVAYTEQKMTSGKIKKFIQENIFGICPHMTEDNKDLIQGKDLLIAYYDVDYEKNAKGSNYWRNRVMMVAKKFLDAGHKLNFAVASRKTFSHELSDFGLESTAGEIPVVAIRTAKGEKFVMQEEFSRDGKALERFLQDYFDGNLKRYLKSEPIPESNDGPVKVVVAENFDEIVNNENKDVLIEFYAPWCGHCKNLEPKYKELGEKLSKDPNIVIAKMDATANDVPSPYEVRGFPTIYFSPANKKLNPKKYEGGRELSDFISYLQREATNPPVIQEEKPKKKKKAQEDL
The experiment is described as above. The note with it: both partners purified.

For the molecule B1, the binding result in experiment [1] is “binds”.
For the molecule B2, the binding result in experiment [2] was “binds”.
